Reference: patent publication US20220259318A1 (Hoffmann-La Roche, published 2022)
Changes are numbered by the printed parent chain. Several values for one entry are separate records, joined by “and”; a condition that tells them apart may be missing. Equal values may be shown once. Read-outs that look alike come from different tables or passages of the source.

B1: P1AE5717 (antibody, V domains shown)
VH: ELQLLESGGGLVQPGGSLRLSCAASGFTFSKYAMAWVRQAPGKGLEWVASISTGGVNTYYRDSVKARFTISRDNAKNTLYLQMNSLRAEDTAVYYCATHTGDYFDYWGQGTMVTVSS
VL: EIVLTQSPGTLSLSPGERATLSCRASQSVSISGINLMNWYQQKPGQQPKLLIYHASILASGIPDRFSGSGSGTDFTLTISRLEPEDFAVYYCQQTRESPLTFGQGTRLEIK
notes: Humanized 5E11 IgG; PGLALA Fc implied by the CAR-J assay; also called 5E11_VH1b + 5E11_VL2b
B2: P1AE5707 (antibody, V domains shown)
VH: B1 VH with L2V, A75S
VL: DIVMTQSPDSLAVSLGERATINCRASQSVSISGINLMNWYQQKPGQQPKLLIYHASILASGVPDRFSGSGSGTDFTLTISSLQAEDVAVYYCQQTRESPLTFGQGTRLEIK
notes: Humanized 5E11 IgG; PGLALA Fc implied by the CAR-J assay; also called 5E11_VH1a + 5E11_VL1a
B3: P1AE5719 (antibody, V domains shown)
VH: B1 VH
VL: DIQMTQSPSSLSASVGDRVTITCRASQSVSISGINLMNWYQQKPGQQPKLLIYHASILASGVPSRFSGSGSGTDFTLTISSLQPEDFATYYCQQTRESPLTFGQGTRLEIK
notes: Humanized 5E11 IgG; PGLALA Fc implied by the CAR-J assay; also called 5E11_VH1b + 5E11_VL3b
B4: P1AE5712 (antibody, V domains shown)
VH: B1 VH with L2V, A75S
VL: B3 VL with Q46K
notes: Humanized 5E11 IgG; PGLALA Fc implied by the CAR-J assay; also called 5E11_VH1a + 5E11_VL3a
B5: P1AE5724 (antibody, V domains shown)
VH: B1 VH with L2V, R61A, A66G, A75S
VL: B3 VL with Q46K
notes: Humanized 5E11 IgG; PGLALA Fc implied by the CAR-J assay; also called 5E11_VH1c + 5E11_VL3a
B6: P1AE5725 (antibody, V domains shown)
VH: B1 VH with L2V, R61A, A66G, A75S
VL: B3 VL
notes: Humanized 5E11 IgG; PGLALA Fc implied by the CAR-J assay; also called 5E11_VH1c + 5E11_VL3b
B7: P1AE5731 (antibody, V domains shown)
VH: B1 VH with R61A, A66G
VL: B3 VL
notes: Humanized 5E11 IgG; PGLALA Fc implied by the CAR-J assay; also called 5E11_VH1d + 5E11_VL3b
B8: P1AE5726 (antibody, V domains shown)
VH: B1 VH with R61A, A66G
VL: B2 VL
notes: Humanized 5E11 IgG; PGLALA Fc implied by the CAR-J assay; also called 5E11_VH1d + 5E11_VL1a
B9: P1AE5729 (antibody, V domains shown)
VH: B1 VH with R61A, A66G
VL: B1 VL
notes: Humanized 5E11 IgG; PGLALA Fc implied by the CAR-J assay; also called 5E11_VH1d + 5E11_VL2b
B10: P1AE5721 (antibody, V domains shown)
VH: B1 VH with L2V, R61A, A66G, A75S
VL: B2 VL with R24K, A25S
notes: Humanized 5E11 IgG; PGLALA Fc implied by the CAR-J assay; also called 5E11_VH1c + 5E11_VL1c
B11: P1AE5708 (antibody, V domains shown)
VH: B1 VH with L2V, A75S
VL: B2 VL with R24K, A25S
notes: Humanized 5E11 IgG; PGLALA Fc implied by the CAR-J assay; also called 5E11_VH1a + 5E11_VL1c
B12: P1AE5715 (antibody, V domains shown)
VH: B1 VH
VL: B2 VL with R24K, A25S
notes: Humanized 5E11 IgG; PGLALA Fc implied by the CAR-J assay; also called 5E11_VH1b + 5E11_VL1c
B13: P1AE5713 (antibody, V domains shown)
VH: B1 VH with L2V, A75S
VL: B3 VL
notes: Humanized 5E11 IgG; PGLALA Fc implied by the CAR-J assay; also called 5E11_VH1a + 5E11_VL3b
B14: P1AE5720 (antibody, V domains shown)
VH: B1 VH with L2V, R61A, A66G, A75S
VL: B2 VL
notes: Humanized 5E11 IgG; PGLALA Fc implied by the CAR-J assay; also called 5E11_VH1c + 5E11_VL1a
B15: P1AE5727 (antibody, V domains shown)
VH: B1 VH with R61A, A66G
VL: B2 VL with R24K, A25S
notes: Humanized 5E11 IgG; PGLALA Fc implied by the CAR-J assay; also called 5E11_VH1d + 5E11_VL1c
B16: P1AE5722 (antibody, V domains shown)
VH: B1 VH with L2V, R61A, A66G, A75S
VL: B1 VL with K49R
notes: Humanized 5E11 IgG; PGLALA Fc implied by the CAR-J assay; also called 5E11_VH1c + 5E11_VL2a
B17: P1AE5714 (antibody, V domains shown)
VH: B1 VH
VL: B2 VL
notes: Humanized 5E11 IgG; PGLALA Fc implied by the CAR-J assay; also called 5E11_VH1b + 5E11_VL1a
B18: 5F11_P1AE5741 (antibody, V domains shown)
VH: EVQLVESGGGVVQPGRSLRLSCAASGFSFSNYGMAWVRQAPGKGLEWVASISTGGGNTYYRDSVKGRFTISRDNAKNTLYLQMNSLRAEDTAVYYCTRHDRGGLYWGQGTMVTVSS
VL: DIVMTQSPLSLPVTPGEPASISCRSSKSLLHSNGITYVYWYLQKPGQSPQLLIYRMSNRASGVPDRFSGSGSGTDFTLKISRVEAEDVGVYHCGQLLENPYTFGQGTKLEIK
notes: Humanized 5F11 IgG; PGLALA Fc implied by the CAR-J assay; also called 5F11_VH1b + 5F11_VL2a
B19: P1AE5763 (antibody, V domains shown)
VH: B18 VH with V11L, R16G, R61A
VL: DIVMTQSPDSLAVSLGERATINCKSSKSLLHSNGITYVYWYQQKPGQPPKLLIYRMSNLASGVPDRFSGSGSGTDFTLTISSLQAEDVAVYHCGQLLENPYTFGQGTKLEIK
notes: Humanized 5F11 IgG; PGLALA Fc implied by the CAR-J assay; also called 5F11_VH2d + 5F11_VL2b
B20: P1AE5744 (antibody, V domains shown)
VH: B18 VH with E1Q, R61A, A75S
VL: B18 VL with L51V, R59L
notes: Humanized 5F11 IgG; PGLALA Fc implied by the CAR-J assay; also called 5F11_VH1c + 5F11_VL1a
B21: 5F11_P1AE5745 (antibody, V domains shown)
VH: B18 VH with E1Q, R61A, A75S
VL: B18 VL with Q47K, L51V, R59L
notes: Humanized 5F11 IgG; PGLALA Fc implied by the CAR-J assay; also called 5F11_VH1c + 5F11_VL1b
B22: ET150-5-TCB (bispecific antibody, human IgG1, lambda, L234A L235A)
light 1: QSVLTQPPSASGTPGQRVTISCSGSRSNVGGNYVFWYQQVPGATPKLLIYRSNQRPSGVPDRFAGSKSGSSASLAISGLRSEDEADYYCATWDDSLSGFVFGTGTKVTVLGQPKAAPSVTLFPPSSKKLQANKATLVCLISDFYPGAVTVAWKADSSPVKAGVETTTPSKQSNNKYAASSYLSLTPEQWKSHRSYSCQVTHEGSTVEKTVAPTECS
light 2: EVQLLESGGGLVQPGGSLRLSCAASGFTFSTYAMNWVRQAPGKGLEWVSRIRSKYNNYATYYADSVKGRFTISRDDSKNTLYLQMNSLRAEDTAVYYCVRHGNFGNSYVSWFAYWGQGTLVTVSSASVAAPSVFIFPPSDEQLKSGTASVVCLLNNFYPREAKVQWKVDNALQSGNSQESVTEQDSKDSTYSLSSTLTLSKADYEKHKVYACEVTHQGLSSPVTKSFNRGEC
heavy 1: EVQLVESGGGLVKPGGSLRLSCAASGFTFSDYYMSWIRQAPGKGLEWVSYISSSGSTIYYADSVKGRFTISRDNAKNSLYLQMNSLRAEDTAVYYCARGYGKAYDQWGQGTLVTVSSASTKGPSVFPLAPSSKSTSGGTAALGCLVEDYFPEPVTVSWNSGALTSGVHTFPAVLQSSGLYSLSSVVTVPSSSLGTQTYICNVNHKPSNTKVDEKVEPKSCDKTHTCPPCPAPEAAGGPSVFLFPPKPKDTLMISRTPEVTCVVVDVSHEDPEVKFNWYVDGVEVHNAKTKPREEQYNSTYRVVSVLTVLHQDWLNGKEYKCKVSNKALGAPIEKTISKAKGQPREPQVCTLPPSRDELTKNQVSLSCAVKGFYPSDIAVEWESNGQPENNYKTTPPVLDSDGSFFLVSKLTVDKSRWQQGNVFSCSVMHEALHNHYTQKSLSLSPGK
heavy 2: not shown

What was measured:
human GPRC5D [1] = biological target: T1, human GPRC5D (human, UniProt Q9NZD1 1-345); experiment: cell-based or functional assay
human GPRC5D [2] = biological target: T1, human GPRC5D; experiment: cell ELISA, CHO hu GPRC5D (EC/IC50 rel)
Procedure: Stable transfected CHO clones expressing either human GPRCSD or cynomolgus GPRCSD or murine GPRCSD or human GPRCSA were used to analyze the binding of potential lead candidate antibodies as IgGs. In detail, 10⁴ cells (viability≥98%) were seeded into 384 well-microtiter plates (BD Poly D-Lysin, #356662, volume: 25 μl/well) using fresh culture medium. After overnight incubation at 37° C., 25 μl/well dilutions of antibodies were added (15×1:3 dilutions in 1×PBS, assay conc. starts at 30 μg/ml) to the cells for 2 hours at 4° C. After one washing step using 90 μl/well PBST (10×PBS, Roche, #11666789001+0.1% Tween 20), cells were subsequently fixed by the addition of 50 μl/well 0.05% glutaraldehyde (Sigma Cat. No: G5882 in 1×PBS) for 10 min at room temperature (RT). After three additional washing steps using 90 μl/well PBST, secondary antibodies were added for detection: for human antibodies goat anti-human Ig a chain antibody HRP conjugate (Millipore #AP502P) diluted 1:2000 in blocking buffer (1×PBS (Roche #11666789001)+2% BSA (Bovine Serum Albumin Fraction V, fatty acid free, Roche, #10735086001)+0.05% Tween 20) was used (25 μl/well). […] After incubation for 1 h at RT and three additional washing steps using 90 μl/well PBST, 25 μl/well TMB substrate was added (Roche order no. 11835033001) for 10 min and color development to final ODs was determined by measurement at 370 nm/492 nm.
For the characterization of the humanization variants of the VH and VL domains of the GPRC5D binders the ELISA protocol as described above was used (see Example 7). The data are summarized in the table 10 for the humanization variants of 5E11 and in table 11 for the humanization variants of 5F11.

human GPRC5D [3] = biological target: T1, human GPRC5D; experiment: cell-based or functional assay; remark: listed apart in the source
human GPRC5D [4] = biological target: T1, human GPRC5D; experiment: cell-based or functional assay; remark: listed apart in the source
human GPRC5D [5] = biological target: T1, human GPRC5D; experiment: cell-based or functional assay; remark: listed apart in the source

T1 sequence (Q9NZD1 whole entry): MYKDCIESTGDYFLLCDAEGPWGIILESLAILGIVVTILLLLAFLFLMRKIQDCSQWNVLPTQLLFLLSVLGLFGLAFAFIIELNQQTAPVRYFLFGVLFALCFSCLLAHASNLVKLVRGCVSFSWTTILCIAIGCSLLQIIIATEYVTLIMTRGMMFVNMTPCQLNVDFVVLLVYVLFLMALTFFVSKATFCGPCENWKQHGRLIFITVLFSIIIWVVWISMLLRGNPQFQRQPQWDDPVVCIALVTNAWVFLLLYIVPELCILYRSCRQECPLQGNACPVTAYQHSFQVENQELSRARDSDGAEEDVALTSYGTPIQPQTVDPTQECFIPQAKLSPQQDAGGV

Row | Binder | CAR-J2 EC50 [ng/mL] (PGLALA-CAR-J activation, L363 target cells) (human GPRC5D [1]) | EC50 (human GPRC5D [2]) | also measured
1 | B1 | 79.9 ng/mL | 0.0139 µg/mL and 0.09 nM | –
2 | B2 | 42.4 ng/mL | 0.0142 µg/mL and 0.09 nM | –
3 | B3 | 2.8 ng/mL | 0.0166 µg/mL and 0.11 nM | –
4 | B4 | 16.1 ng/mL | 0.0131 µg/mL and 0.09 nM | –
5 | B5 | 3.6 ng/mL | 0.0053 µg/mL and 0.04 nM | –
6 | B6 | 10.9 ng/mL | 0.0051 µg/mL and 0.03 nM | –
7 | B7 | 2.3 ng/mL | 0.0052 µg/mL and 0.03 nM | –
8 | B8 | 37.8 ng/mL | 0.0076 µg/mL and 0.05 nM | –
9 | B9 | 61.3 ng/mL | 0.0104 µg/mL and 0.07 nM | –
10 | B10 | 25 ng/mL | 0.0183 µg/mL and 0.12 nM | –
11 | B11 | 456 ng/mL | 0.012 µg/mL and 0.08 nM | –
12 | B12 | 3.6 ng/mL | 0.0211 µg/mL and 0.14 nM | –
13 | B13 | 76.9 ng/mL | 0.0165 µg/mL and 0.11 nM | –
14 | B14 | 6.3 ng/mL | 0.0217 µg/mL and 0.14 nM | –
15 | B15 | 6.3 ng/mL | 0.0087 µg/mL and 0.06 nM | –
16 | B16 | 4.6 ng/mL | 0.0197 µg/mL and 0.13 nM | –
17 | B17 | 5.5 ng/mL | 0.0129 µg/mL and 0.09 nM | –
18 | B18 | – | 0.0067 µg/mL and 0.04 nM | CAR-J2 EC50 [ng/mL] (PGLALA-CAR-J activation, L363 target cells) (human GPRC5D [3]): 1.4 ng/mL; EC50 values of CAR-J activation (human GPRC5D [4]): 1.4 ng/mL
19 | B19 | – | 0.006 µg/mL and 0.04 nM | CAR-J2 EC50 [ng/mL] (PGLALA-CAR-J activation, L363 target cells) (human GPRC5D [3]): 5.47 ng/mL; EC50 values of CAR-J activation (human GPRC5D [4]): 5.47 ng/mL
20 | B20 | – | 0.0086 µg/mL and 0.06 nM | CAR-J2 EC50 [ng/mL] (PGLALA-CAR-J activation, L363 target cells) (human GPRC5D [3]): 3.63 ng/mL; EC50 values of CAR-J activation (human GPRC5D [4]): 3.63 ng/mL
21 | B21 | – | 0.0097 µg/mL and 0.06 nM | CAR-J2 EC50 [ng/mL] (PGLALA-CAR-J activation, L363 target cells) (human GPRC5D [3]): 1.62 ng/mL; EC50 values of CAR-J activation (human GPRC5D [4]): 1.62 ng/mL
22 | B22 | – | – | EC50 of anti-GPRC5D-TCB mediated killing, AMO-1 (human GPRC5D [5]): 0.0835 nM; EC50 of anti-GPRC5D-TCB mediated killing, L363 (human GPRC5D [5]): 0.768 nM; EC50 of anti-GPRC5D-TCB mediated killing, NCI-H929 (human GPRC5D [5]): 0.833 nM; EC50 of anti-GPRC5D-TCB mediated killing, RPMI-8226 (human GPRC5D [5]): 0.797 nM
